Measurements published in patent CN113912708A (INST MILITARY MEDICINE ACADEMY MILITARY SCIENCES PLA, dated 2022).

What was measured:
MERS-CoV RBD-Fc蛋白 = MERS-CoV RBD-Fc蛋白 (MERS-CoV (RBD); human (IgG Fc))
MERS-CoV假病毒 = MERS-CoV假病毒 (MERS-CoV); assay: cell-based or functional assay

B1: 单域重链抗体Nano-Anti-MRBD (VHH)
VHH: QVQLVESGGGLVQPGGSLRLSCAASGFSFIDYAMSWARQAPGKGLEWVSSISPGYGTTYYTDSVKGRFTISRDNAKNMLYLQMNSLKPEDTATYYCAKGSDPFTPGIQRGQGTQVTVSS
How did the EC50 (MERS-CoV RBD-Fc蛋白) turn out when B1 was run?
The EC50 was 0.744 ng/mL.

And the “对MERS-CoV假病毒进入细胞的抑制率 (IC50, luciferase RLU, Huh-7细胞)” value (MERS-CoV假病毒)?
The value was 10.7 ng/mL.
